The values below come from patent US20130236458A1 (AbbVie / Abbott, published 2013).

For assay [1], the target named is T1, Recombinant Human IL-13 (human, UniProt P35225 35-146, limits assumed).
T1 construct: bought reagent
Kind of assay: SPR (Biacore). In a few lines: (§1)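 Antibodies or DVD-Ig captured on anti-mouse IgG (Fcγ) CM5 surface; antigen injected at 10–200 nM in HBS-EP, pH 7.4, 25 °C, 25 µL/min. kon and koff from global 1:1 Langmuir fit; KD = koff/kon.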
In general terms: In SPR one partner is held on a chip, and binding of the other changes the refractive index at the surface.

In assay [2] the target is T2, Recombinant Human IL-17 (human, UniProt Q16552 20-155, limits assumed).
T2 construct: bought reagent; also called IL-17A
T2 sequence (looked up): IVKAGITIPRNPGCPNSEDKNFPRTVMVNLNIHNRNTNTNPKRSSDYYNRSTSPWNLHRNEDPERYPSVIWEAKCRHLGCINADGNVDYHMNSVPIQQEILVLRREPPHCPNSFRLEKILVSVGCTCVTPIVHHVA
The assay is described as follows: SPR (Biacore). In a few lines:
as §1

The target of assay [3] is T1, Recombinant Human IL-13. Kind of assay: cell-based or functional assay.
The target in assay [4] is T2, Recombinant Human IL-17. Kind of assay: cell-based or functional assay.

T1 sequence (P35225 35-146 limits assumed): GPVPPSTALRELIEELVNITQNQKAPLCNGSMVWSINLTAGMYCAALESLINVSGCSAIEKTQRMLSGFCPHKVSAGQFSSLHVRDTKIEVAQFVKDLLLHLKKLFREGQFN

B1: DVD2177 (bispecific antibody)
VH: EVQLVQSGAEVKKPGSSVKVSCKASGGSFGGYGIGWVRQAPGQGLEWMGGITPFFGFADYAQKFQGRVTITADESTTTAYMELSGLTSDDTAVYYCARDPNEFWNGYYSTHDFDSWGQGTTVTVSSASTKGPSVFPLAPEVQLVQSGAEVKKPGASVKVSCKASGYTFTTYGVSWVRQAPGQGLEWMGEIYPGNYNTYYNEKFRGRVTMTTDTSTSTAYMELRSLRSDDTAVYYCARWRTSYFSDYGYFDYWGQGTTVTVSS
VL: EIVLTQSPDFQSVTPKEKVTITCRASQDIGSELHWYQQKPDQPPKLLIKYASHSTSGVPSRFSGSGSGTDFTLTINGLEAEDAGTYYCHQTDSLPYTFGPGTKVDIKRTVAAPDVVMTQSPLSLPVTLGQPASISCRSSQSLVHSHGNTYLHWYQQRPGQSPRLLIYTVSNRFSGVPDRFSGSGSGTDFTLKISRVEAEDVGVYYCSQSTHVPYTFGGGTKVEIKR
notes: DVD-Ig; also called DVD2177H; DVD2177L
By Kd is commonly meant a measure of binding affinity in units of concentration. Usually koff stands for the first-order rate constant of dissociation. As usually defined, the kon is a measure of how fast the partners come together. Regarding B1, in assay [1], the Kd is less than 9.1 pM, the off-rate constant (koff) was less than 1e-06 s⁻¹ and the association rate constant (kon) came to 110000 M⁻¹ s⁻¹. Also, in assay [2], the dissociation constant Kd was no more than 4.3 pM, the koff was no more than 1e-05 s⁻¹ and the kon is 2.5e+06 M⁻¹ s⁻¹. In addition, the “C-Terminal VD IL13 Neutralization Assay IC50” value in assay [3] came out at 155 pM. For the same molecule, the “N-Terminal VD IL17 Neutralization Assay IC50” value in assay [4] is 10.1 pM.

B2: DVD2179 (bispecific antibody)
VH: EVQLVQSGAEVKKPGESVKISCKASGGSFRSYGISWVRQAPGQGLEWMGGITHFFGITDYAQKFQGRVTITADESTTTAYMELSGLTSDDTAVYYCAREPNDFWNGYYDTHDFDSWGQGTTVTVSSASTKGPEVQLVQSGAEVKKPGASVKVSCKASGYTFTTYGVSWVRQAPGQGLEWMGEIYPGNYNTYYNEKFRGRVTMTTDTSTSTAYMELRSLRSDDTAVYYCARWRTSYFSDYGYFDYWGQGTTVTVSS
VL: EIVLTQSPDFQSVTPKEKVTITCRASQNIGSELHWYQQKPDQSPKLLIKYASHSISGVPSRFSGSGSGTDFTLTINGLEAEDAATYYCHQSDTLPHTFGQGTKVDIKRTVAAPDVVMTQSPLSLPVTLGQPASISCRSSQSLVHSHGNTYLHWYQQRPGQSPRLLIYTVSNRFSGVPDRFSGSGSGTDFTLKISRVEAEDVGVYYCSQSTHVPYTFGGGTKVEIKR
notes: DVD-Ig; also called DVD2179H; DVD2179L
With B2, in assay [1], the equilibrium dissociation constant (Kd) is no more than 3.6 pM, the off-rate (koff) was no more than 1e-06 s⁻¹ and the on-rate constant (kon) was found to be 280000 M⁻¹ s⁻¹. Besides, in assay [2], the Kd came out at 39 pM, the off-rate (koff) was 6.4e-05 s⁻¹ and the on-rate constant (kon) amounted to 1.7e+06 M⁻¹ s⁻¹. Besides, the “C-Terminal VD IL13 Neutralization Assay IC50” value in assay [3] stood at 916 pM. Besides, the “N-Terminal VD IL17 Neutralization Assay IC50” value in assay [4] turned out to be 9.7 pM.

B3: DVD2183 (bispecific antibody)
VH: EVQLVQSGAEVKKPGESVKISCKASGGSFRSYGISWVRQAPGQGLEWMGGITHFFGITDYAQKFQGRVTITADESTTTAYMELSGLTSDDTAVYYCAREPNDFWNGYYDTHDFDSWGQGTTVTVSSASTKGPSVFPLAPEVQLVQSGAEVKKPGASVKVSCKASGYTFTTYGVSWVRQAPGQGLEWMGEIYPGNYNTYYNEKFRGRVTMTTDTSTSTAYMELRSLRSDDTAVYYCARWRTSYFSDYGYFDYWGQGTTVTVSS
VL: EIVLTQSPDFQSVTPKEKVTITCRASQNIGSELHWYQQKPDQSPKLLIKYASHSISGVPSRFSGSGSGTDFTLTINGLEAEDAATYYCHQSDTLPHTFGQGTKVDIKRTVAAPDVVMTQSPLSLPVTLGQPASISCRSSQSLVHSHGNTYLHWYQQRPGQSPRLLIYTVSNRFSGVPDRFSGSGSGTDFTLKISRVEAEDVGVYYCSQSTHVPYTFGGGTKVEIKR
notes: DVD-Ig; also called DVD2183H; DVD2183L
Consider B3, for which, in assay [1], the dissociation constant (Kd) was less than 4.2 pM, the dissociation rate constant (koff) was less than 1e-06 s⁻¹ and the kon was found to be 240000 M⁻¹ s⁻¹. Further, in assay [2], the Kd turned out to be 15 pM, the koff turned out to be 3.6e-05 s⁻¹ and the kon worked out at 2.3e+06 M⁻¹ s⁻¹. Also, in assay [3], the “C-Terminal VD IL13 Neutralization Assay IC50” value amounted to 86 pM. In addition, the “N-Terminal VD IL17 Neutralization Assay IC50” value in assay [4] turned out to be 12.5 pM.

B4: DVD2185 (bispecific antibody)
VH: EVQLVQSGAEVKKPGSSVKVSCKASGYTFTDYEIHWVRQAPGQGLEWMGVNDPESGGTFYNQKFDGRVTLTADESTSTAYMELSSLRSEDTAVYYCTRYSKWDSFDGMDYWGQGTTVTVSSASTKGPEVQLVQSGAEVKKPGASVKVSCKASGYTFTSYWMHWVRQAPGQGLEWIGNINPKGGSNIYNEKFQGRVTMTRDTSISTAYMELSRLRSDDTAVYYCARLDYFGDSFDLWGQGTTVTVSS
VL: DIQMTQSPSSLSASVGDRVTITCRASSGIISYIDWFQQKPGKAPKRLIYATFDLASGVPSRFSGSGSGTDYTLTISSLQPEDFATYYCRQVGSYPETFGQGTKLEIKRTVAAPDIQMTQSPSSLSASVGDRVTITCRASQGIRNYLNWYQQKPGKAPKLLIYYASNLEVGVPSRFSGSGSGTDYTLTISSLQPEDFATYYCQQDNRFPYTFGGGTKVEIKR
notes: DVD-Ig; also called DVD2185H; DVD2185L
Regarding B4, in assay [1], the Kd is less than 9.1 pM, the dissociation rate constant (koff) is less than 1e-06 s⁻¹ and the kon amounted to 110000 M⁻¹ s⁻¹. In assay [2], the Kd was determined as 8.9 pM, the koff was found to be 1.5e-05 s⁻¹ and the association rate constant (kon) came to 1.7e+06 M⁻¹ s⁻¹. The “C-Terminal VD IL13 Neutralization Assay IC50” value in assay [3] was 1250 pM. In assay [4], the “N-Terminal VD IL17 Neutralization Assay IC50” value was 1.3 pM.
